Experimental data published in the supplement of paper PMC7877785.
± gives the uncertainty stated by the source.

Experiment: self-splicing fitness, log relative to wild type (ln ratio); higher = more splicing; Tetrahymena group I intron in knt gene, E. coli kanamycin selection, DiMSum; sequences stand for … in CUCUCU…GGAGGGAAAAGUUAUCAGGCAUGCACCUGGUAGCUAGUCUUUAAACCAAUAGAUUGCAUCGGUUUAAAAGGCAAGACCGUCAAAUUGCGGGAAAGGGGUCAACAGCCGUUCAGUACCAAGUCUCAGGGGAAACUUUGAGAUGGCCUUGCAAAGGGUAUGGUAAUAAGCUGACGGACAUGGUCCUAACCACGCAGCCAAGUCCUAAGUCAACAGAUCUUCUGUUGAUAUGGAUGCAGUUCACAGACUAAAUGUCGGUCGGGGAAGAUGUAUUCUUCUCAUAAGAUAUAGUCGGACCUCUCCUUAAUGGGAGCUAGCGGAUGAAGUGAUGCAACACUGGAGCCGCUGGGAACUAAUUUGUAUGCGAAAGUAUAUUGAUUAGUUUUGGAGUACUCGUGGUCG
Outline: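 Fitness was computed with DiMSum as the error-weighted combination of replicate fold changes, kanamycin versus none, each normalised to wild type. The library randomised all eight intron nucleotides of the P1ex region, with the intron placed in the knt kanamycin-resistance gene on pET-22b(+) in E. coli BL21(DE3). Six replicate transformations were grown overnight at 37°C or 30°C on LB agar with or without 25 μg/mL kanamycin, plus 100 μg/mL carbenicillin, 50 μM IPTG and 0.2% rhamnose. Pooled colonies were amplicon-sequenced on an Illumina HiSeq 2500.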

| Sequence | self-splicing fitness (ln) (30 °C) | self-splicing fitness (ln) (37 °C) |
| --- | --- | --- |
| CGAGAGCAAUAUUACGGUGC | -3.73 ± 0.25 | -3.43 ± 0.46 |
| GCAUAGCAAUAUUACGUAAC | -2.24 ± 0.13 | -1.57 ± 0.14 |
| GGGCAGCAAUAUUACGUAUU | -0.944 ± 0.061 | 0.0363 ± 0.074 |
| UUUUAGCAAUAUUACGGGGU | -1.6 ± 0.22 | -1.08 ± 0.35 |
| GAAUAGCAAUAUUACGGUUG | -1.27 ± 0.092 | -0.561 ± 0.13 |
| GGAAAGCAAUAUUACGAUAC | 0.424 ± 0.17 | -0.511 ± 0.35 |
| CGACAGCAAUAUUACGGGAC | -4.58 ± 0.26 | -1.71 ± 0.14 |
| ACAUAGCAAUAUUACGCGUA | -2.19 ± 0.091 | -0.613 ± 0.086 |
| CAGCAGCAAUAUUACGACAA | -3.11 ± 0.39 | -1.67 ± 0.23 |
| CCGCAGCAAUAUUACGUCCU | -3.12 ± 0.18 | -1.39 ± 0.17 |
| GGUAAGCAAUAUUACGAGUG | -2 ± 0.16 | -3.17 ± 0.13 |
| UGUAAGCAAUAUUACGACUU | -1.06 ± 0.09 | 0.0267 ± 0.14 |
| AUAGAGCAAUAUUACGUCAC | -1.53 ± 0.22 | -0.0932 ± 0.22 |
| ACGUAGCAAUAUUACGCUCC | -2.71 ± 0.36 | -0.259 ± 0.22 |
| GCUCAGCAAUAUUACGAGGU | -1.06 ± 0.12 | -2.08 ± 0.23 |
| CGAGAGCAAUAUUACGAUGC |  | -1.63 ± 0.35 |
| GUGGAGCAAUAUUACGUAGA | -2.11 ± 0.45 | -1.16 ± 0.23 |
| AUUAAGCAAUAUUACGAGAU | -2.99 ± 0.21 | -1.47 ± 0.16 |
| UCUCAGCAAUAUUACGUGCG | -3 ± 0.22 | -1.44 ± 0.18 |
| GUCUAGCAAUAUUACGCCGU | -0.884 ± 0.23 | -0.0862 ± 0.26 |
| UGGCAGCAAUAUUACGGAAA | -1.94 ± 0.16 | -0.318 ± 0.14 |
| AACCAGCAAUAUUACGGAAC | -2.13 ± 0.091 | -1.04 ± 0.088 |
| CAAGAGCAAUAUUACGCCGU | -1.59 ± 0.47 |  |
| CUGUAGCAAUAUUACGAACU | -2.78 ± 0.26 |  |

| Sequence | self-splicing fitness (ln) (30 °C) | self-splicing fitness (ln) (37 °C) |
| --- | --- | --- |
| CGCAAGCAAUAUUACGGGAU | -4.29 ± 0.26 | -2.95 ± 0.23 |
| GAAUAGCAAUAUUACGUGCG | -1.2 ± 0.074 | -0.181 ± 0.094 |
| AGCAAGCAAUAUUACGAUAA | -2.16 ± 0.12 | 0.308 ± 0.11 |
| UUAAAGCAAUAUUACGGGCU | -2.46 ± 0.11 | -0.716 ± 0.1 |
| GACCAGCAAUAUUACGUCAU | -1.66 ± 0.058 | -0.747 ± 0.062 |
| CGACAGCAAUAUUACGUUCA | -0.308 ± 0.054 | 0.198 ± 0.087 |
| CAAUAGCAAUAUUACGAGUG | -0.279 ± 0.079 | -0.905 ± 0.11 |
| UGUGAGCAAUAUUACGUUAU | -4.11 ± 0.28 | -3.51 ± 0.28 |
| AAGAAGCAAUAUUACGGUAG | -3.76 ± 0.19 | -1.83 ± 0.17 |
| AGUCAGCAAUAUUACGUGCC | -1.02 ± 0.077 | 0.0632 ± 0.095 |
| UCCCAGCAAUAUUACGCUAG | -3.45 ± 0.18 | -2.9 ± 0.34 |
| CCAAAGCAAUAUUACGGAUC | -3.45 ± 0.23 | -2.47 ± 0.39 |
| AAGUAGCAAUAUUACGGUAA | -1.12 ± 0.17 | -0.903 ± 0.13 |
| AAUCAGCAAUAUUACGGCGA | -0.0143 ± 0.073 | 0.557 ± 0.093 |
| GUUAAGCAAUAUUACGAGGG | -3.99 ± 0.21 | -3.08 ± 0.25 |
| AGGAAGCAAUAUUACGAUAU | -3.48 ± 0.19 | -2.5 ± 0.12 |
| AACAAGCAAUAUUACGCGUU | -3.91 ± 0.2 | -3.32 ± 0.18 |
| UCUUAGCAAUAUUACGGCGU | -0.535 ± 0.15 | -1.19 ± 0.2 |
| CAAAAGCAAUAUUACGAAAC | -4.17 ± 0.39 | -3.75 ± 0.33 |
| ACUGAGCAAUAUUACGAGUC | -3.18 ± 0.23 | -3.2 ± 0.28 |
| AUGUAGCAAUAUUACGAGGC |  | -1.47 ± 0.28 |
| ACCUAGCAAUAUUACGAUAG | -3.99 ± 0.35 | -2.49 ± 0.41 |
| CGUUAGCAAUAUUACGAGGG | -3.63 ± 0.47 | -0.739 ± 0.19 |
| UACUAGCAAUAUUACGGGCA | -0.178 ± 0.071 | 0.53 ± 0.11 |
